Measurements taken from patent US20210393523A1, “AROMATIC RING SUBSTITUTED AMPHIPHILIC POLYMERS AS DRUG DELIVERY SYSTEMS” (Avldea Technologies, Inc., priority 2018, published 2021).
Square brackets hold non-standard residues; d marks the D form. Ends that are not written are not given here. N3‑DBCO = triazole linker from reaction of an azide with DBCO; Lys(N3) = [N-]=[N+]=NCCCC[C@H](N)C(=O)O; Phe(4-NH2) = Nc1ccc(C[C@H](N)C(=O)O)cc1

How the values were obtained:
MC38 tumor cells = experiment: Regression of established MC38 tumors after intratumoral treatment; assay type: in vivo, C57BL/6 mice; details: intratumoral days 11 and 17, 10 and 50 nmol
Procedure: Tumors were measured by digital callipers for the longest dimension (‘length’) and the distance perpendicular to the length (‘width’), and volume estimated by the formula: <volume=width×width×length/2>. Data are reported as mean±s.e.m in FIGS. 3-5. Tumor regression is noted as soon as 1 day following 50 nmol dose of each S-B-H carrier of TLR-7/8a.

[1] = Particle size and stability by dynamic light scattering; assay type: physicochemical; details: Table 3; peptide-based linear C-B-H; PBS pH 7.4, 0.5 mg/mL
Procedure: To evaluate particle size and stability, 10 μL of the resulting mixture was diluted with 190 μL PBS, pH 7.4 and the resulting solution was evaluated for turbidity and by dynamic light scattering (DLS).
This reaction scheme was used to prepare different compositions of amphiphilic block copolymers that were characterized for the capacity to form stable nanoparticle micelles in aqueous buffer, PBS pH 7.4, at a concentration of 0.5 mg/mL of amphiphilic block copolymer.
A series of linear amphiphilic block copolymers of formula C-B-H, wherein the charged molecule (C) and spacer (B) comprises peptides, i.e., poly(lysine) and poly(serine-co-glycine), respectively, with varying hydrophobic polymer composition were evaluated for particle size and stability by dynamic light scattering.

[2] = as above; assay type: physicochemical; details: Table 2; S-[B]-H particles

Row | Substance | Size (diameter, nm) [1] | further results
1 | K7(SG)12×—(N3-DBCO)-Ahx-(F′)20 [Compound 84] | – | Regression of established tumors (MC38 tumor cells; FIG. 4, nanoparticles associated with 2BXy (1 to 4 molar ratio) or covalently linked to 2BXy): promote regression of established tumors
2 | KKK-SGSGSGSGSGSGSGSGSGSGSGSG-(Lys(N3-DBCO))-Ahx-(F′)10: peptide-based linear amphiphilic block copolymer (KKKSGSGSGSGSGSGSGSGSGSGSGSGK[Phe(4-NH2)][Phe(4-NH2)][Phe(4-NH2)][Phe(4-NH2)][Phe(4-NH2)][Phe(4-NH2)][Phe(4-NH2)][Phe(4-NH2)][Phe(4-NH2)][Phe(4-NH2)]; not fully specified (residue 28); printed as KKK-SGSGSGSGSGSGSGSGSGSGSGSG-(Lys(N3-DBCO))-Ahx-(F′)10; also: Lys joined to F′ block via N3-DBCO-Ahx linkage) | 3839 nm | –
3 | EEEEE-(N3-DBCO)-WWWWW (EEEEE[N3‑DBCO]WWWWW) [Compound 23] | – | Particle size (Diameter, nm) [2]: 54.09 nm
4 | KKK-SGSGSGSGSGSGSGSGSGSGSGSG-(Lys(N3-DBCO))-Ahx-(F′)5: peptide-based linear amphiphilic block copolymer (KKKSGSGSGSGSGSGSGSGSGSGSGSGK[Phe(4-NH2)][Phe(4-NH2)][Phe(4-NH2)][Phe(4-NH2)][Phe(4-NH2)]; not fully specified (residue 28); printed as KKK-SGSGSGSGSGSGSGSGSGSGSGSG-(Lys(N3-DBCO))-Ahx-(F′)5; also: Lys joined to F′ block via N3-DBCO-Ahx linkage) | 1013 nm | –
5 | {OH-PEG24}4-{propargyl}4K2K{Lys(N3)}-DBCO-Ahx-(F′)10 [Compound 80] | – | Regression of established tumors (MC38 tumor cells; FIG. 5, nanoparticles admixed with 2BXy and Doxorubicin at 1 to 4 to 4 molar ratio): promote regression of established tumors
6 | KKKKKKK-SGSGSGSGSGSGSGSGSGSGSGSG-(Lys(N3-DBCO))-Ahx-(F′)5: peptide-based linear amphiphilic block copolymer (KKKKKKKSGSGSGSGSGSGSGSGSGSGSGSGK[Phe(4-NH2)][Phe(4-NH2)][Phe(4-NH2)][Phe(4-NH2)][Phe(4-NH2)]; not fully specified (residue 32); printed as KKKKKKK-SGSGSGSGSGSGSGSGSGSGSGSG-(Lys(N3-DBCO))-Ahx-(F′)5; also: Lys joined to F′ block via N3-DBCO-Ahx linkage) | 477 nm | –
7 | KKKKKKK-SGSGSGSGSGSGSGSGSGSGSGSG-(Lys(N3-DBCO))-Ahx-(F′)20: peptide-based linear amphiphilic block copolymer (KKKKKKKSGSGSGSGSGSGSGSGSGSGSGSGK[Phe(4-NH2)][Phe(4-NH2)][Phe(4-NH2)][Phe(4-NH2)][Phe(4-NH2)][Phe(4-NH2)][Phe(4-NH2)][Phe(4-NH2)][Phe(4-NH2)][Phe(4-NH2)][Phe(4-NH2)][Phe(4-NH2)][Phe(4-NH2)][Phe(4-NH2)][Phe(4-NH2)][Phe(4-NH2)][Phe(4-NH2)][Phe(4-NH2)][Phe(4-NH2)][Phe(4-NH2)]; not fully specified (residue 32); also: Lys joined to F′ block via N3-DBCO-Ahx linkage) | 32 nm | –
8 | KKK-SLVRX-(N3-DBCO)-WWWWW (KKKSLVR[Lys(N3)]WWWWW; not fully specified (residue 8); printed as KKK-SLVRX-(N3-DBCO)-WWWWW; also: azidolysine joined to Trp block via N3-DBCO linkage) [Compound 22] | – | Particle size (Diameter, nm) [2]: 64.73 nm
